B1: Mitochondrial import inner membrane translocase subunit TIM50 (Saccharomyces cerevisiae), Q02776 (parent)
chain: MLSILRNSVRLNSRALRVVPSAANTLTSVQASRRLLTSYSSFLQKETKDDKPKSILTDDMLFKAGVDVDEKGQGKNEETSGEGGEDKNEPSSKSEKSRRKRQTSTDIKREKYANWFYIFSLSALTGTAIYMARDWEPQESEELKKDIDNGYTLSLMYKRFKARFNSMFTYFQEPPFPDLLPPPPPPPYQRPLTLVITLEDFLVHSEWSQKHGWRTAKRPGADYFLGYLSQYYEIVLFSSNYMMYSDKIAEKLDPIHAFVSYNLFKEHCVYKDGVHIKDLSKLNRDLSKVIIIDTDPNSYKLQPENAIPMEPWNGEADDKLVRLIPFLEYLATQQTKDVRPILNSFEDKKNLAEEFDHRVKKLKDKFYGDHKSGGNWAMTALGLGNSLGGSTKFPLDLIHEEGQKNYLMFMKMIEEEKEKIRIQQEQMGGQTFTLKDYVEGNLPSPEEQMKIQLEKQKEVDALFEEEKKKKKIAESK
B2: ATP synthase subunit 9, mitochondrial (Neurospora crassa (strain ATCC 24698 / 74-OR23-1A / CBS 708.71 / DSM 1257 / FGSC 987)), P00842 (parent)
chain: MASTRVLASRLASQMAASAKVARPAVRVAQVSKRTIQTGSPLQTLKRTQMTSIVNATTRQAFQKRAYSSEIAQAMVEVSKNLGMGSAAIGLTGAGIGIGLVFAALLNGVARNPALRGQLFSYAILGFAFVEAIGLFDLMVALMAKFT
partner: B1 chain

Variants of: B1
Settings: with atp9_neucr oli

Variant | effect of a mutation on the interaction
MLSILRNSVRLNSRALRVVPSAANTLTSVQASRRLLTSYSSFLQKETKDDKPKSILTDDMLFKAGVDVDEKGQGKNEETSGEGGEDKNEPSSKSEKSRRKRQTSTDIKREKYANWFYIFSLSALTGTAIYMARDWEPQESEELKKDIDNGYTLSLMYKRFKARFNSMFTYFQEPPFPDLLPPPPPPPYQRPLTLVITLEDFLVHSEWSQKHGWRTAKRPGADYFLGYLSQYYEIVLFSSNYMMYSDKIAEKLDPIHAFVSYNLFKEHCVYKDGVHIKDLSKLNRDLSKVIIIDTDPNSYKLQPENAIPMEPWNGEADDKLVRLIPFLEYLATQQTKDVRPILNSFEDKKNLAEEFDHRVKKLKDKFYGDHKSGGNWAMTALGLGNSLGGSTKFPLDLIHEEGQKNYLMFMKMIEAEKEKIRIQQEQMGGQTFTLKDYVEGNLPSPEEQMKIQLEKQKEVDALFEEEKKKKKIAESK [E415A] | decreasing interaction

Variants of: B1
Settings: with atp9_neucr oli
Remark: another data set of the same source

Variant | effect of a mutation on the interaction
MLSILRNSVRLNSRALRVVPSAANTLTSVQASRRLLTSYSSFLQKETKDDKPKSILTDDMLFKAGVDVDEKGQGKNEETSGEGGEDKNEPSSKSEKSRRKRQTSTDIKREKYANWFYIFSLSALTGTAIYMARDWEPQESEELKKDIDNGYTLSLMYKRFKARFNSMFTYFQEPPFPDLLPPPPPPPYQRPLTLVITLEDFLVHSEWSQKHGWRTAKRPGADYFLGYLSQYYEIVLFSSNYMMYSDKIAEKLDPIHAFVSYNLFKEHCVYKDGVHIKDLSKLNRDLSKVIIIDTDPNSYKLQPENAIPMEPWNGEADDKLVRLIPFLEYLATQQTKDVRPILNSFEDKKNLAEEFDHRVKKLKDKFYGDHKSGGNWAMTALGLGNSLGGSTKFPLDLIHEEGQKNYLMFMKMAEEEKEKIRIQQEQMGGQTFTLKAYVEGNLPSPEEQMKIQLEKQKEVDALFEEEKKKKKIAESK [I413A;D436A] | disrupting interaction

Variants of: B1
Settings: with atp9_neucr oli
Remark: another data set of the same source

Variant | effect of a mutation on the interaction
MLSILRNSVRLNSRALRVVPSAANTLTSVQASRRLLTSYSSFLQKETKDDKPKSILTDDMLFKAGVDVDEKGQGKNEETSGEGGEDKNEPSSKSEKSRRKRQTSTDIKREKYANWFYIFSLSALTGTAIYMARDWEPQESEELKKDIDNGYTLSLMYKRFKARFNSMFTYFQEPPFPDLLPPPPPPPYQRPLTLVITLEDFLVHSEWSQKHGWRTAKRPGADYFLGYLSQYYEIVLFSSNYMMYSDKIAEKLDPIHAFVSYNLFKEHCVYKDGVHIKDLSKLNRDLSKVIIIDTDPNSYKLQPENAIPMEPWNGEADDKLVRLIPFLEYLATQQTKDVRPILNSFEDKKNLAEEFDHRVKKLKDKFYGDHKSGGNWAMTALGLGNSLGGSTKFPLDLIHEEGQKNYLMFMKMIEEEKEKIRIQQEQMGGQTFTNKDYVEGNLPSPEEQMKIQLEKQKEVDALFEEEKKKKKIAESK [L434N] | decreasing interaction

Variants of: B1
Settings: with atp9_neucr oli
Remark: another data set of the same source

Variant | effect of a mutation on the interaction
MLSILRNSVRLNSRALRVVPSAANTLTSVQASRRLLTSYSSFLQKETKDDKPKSILTDDMLFKAGVDVDEKGQGKNEETSGEGGEDKNEPSSKSEKSRRKRQTSTDIKREKYANWFYIFSLSALTGTAIYMARDWEPQESEELKKDIDNGYTLSLMYKRFKARFNSMFTYFQEPPFPDLLPPPPPPPYQRPLTLVITLEDFLVHSEWSQKHGWRTAKRPGADYFLGYLSQYYEIVLFSSNYMMYSDKIAEKLDPIHAFVSYNLFKEHCVYKDGVHIKDLSKLNRDLSKVIIIDTDPNSYKLQPENAIPMEPWNGEADDKLVRLIPFLEYLATQQTKDVRPILNSFEDKKNLAEEFDHRVKKLKDKFYGDHKSGGNWAMTALGLGNSLGGSTKFPLDLIHEEGQKNYLMFMKMIAEEKEKIRIQQEQMGGQTFTLKDYVEGNLPSPEEQMKIQLEKQKEVDALFEEEKKKKKIAESK [E414A] | decreasing interaction

Variants of: B2
Settings: with tim50_yeast TIM50, Q02776

Variant | effect of a mutation on the interaction
L7Q;A12Q;A16Q;A17Q | disrupting interaction

From IntAct's records for PubMed 24462684
